Results reported in patent US20250163158A1 (Astellas, published 2025).

Target: T1, integrin α11 (ITGA11) (human, UniProt Q9UKX5 23-1188)
T1 sequence (looked up): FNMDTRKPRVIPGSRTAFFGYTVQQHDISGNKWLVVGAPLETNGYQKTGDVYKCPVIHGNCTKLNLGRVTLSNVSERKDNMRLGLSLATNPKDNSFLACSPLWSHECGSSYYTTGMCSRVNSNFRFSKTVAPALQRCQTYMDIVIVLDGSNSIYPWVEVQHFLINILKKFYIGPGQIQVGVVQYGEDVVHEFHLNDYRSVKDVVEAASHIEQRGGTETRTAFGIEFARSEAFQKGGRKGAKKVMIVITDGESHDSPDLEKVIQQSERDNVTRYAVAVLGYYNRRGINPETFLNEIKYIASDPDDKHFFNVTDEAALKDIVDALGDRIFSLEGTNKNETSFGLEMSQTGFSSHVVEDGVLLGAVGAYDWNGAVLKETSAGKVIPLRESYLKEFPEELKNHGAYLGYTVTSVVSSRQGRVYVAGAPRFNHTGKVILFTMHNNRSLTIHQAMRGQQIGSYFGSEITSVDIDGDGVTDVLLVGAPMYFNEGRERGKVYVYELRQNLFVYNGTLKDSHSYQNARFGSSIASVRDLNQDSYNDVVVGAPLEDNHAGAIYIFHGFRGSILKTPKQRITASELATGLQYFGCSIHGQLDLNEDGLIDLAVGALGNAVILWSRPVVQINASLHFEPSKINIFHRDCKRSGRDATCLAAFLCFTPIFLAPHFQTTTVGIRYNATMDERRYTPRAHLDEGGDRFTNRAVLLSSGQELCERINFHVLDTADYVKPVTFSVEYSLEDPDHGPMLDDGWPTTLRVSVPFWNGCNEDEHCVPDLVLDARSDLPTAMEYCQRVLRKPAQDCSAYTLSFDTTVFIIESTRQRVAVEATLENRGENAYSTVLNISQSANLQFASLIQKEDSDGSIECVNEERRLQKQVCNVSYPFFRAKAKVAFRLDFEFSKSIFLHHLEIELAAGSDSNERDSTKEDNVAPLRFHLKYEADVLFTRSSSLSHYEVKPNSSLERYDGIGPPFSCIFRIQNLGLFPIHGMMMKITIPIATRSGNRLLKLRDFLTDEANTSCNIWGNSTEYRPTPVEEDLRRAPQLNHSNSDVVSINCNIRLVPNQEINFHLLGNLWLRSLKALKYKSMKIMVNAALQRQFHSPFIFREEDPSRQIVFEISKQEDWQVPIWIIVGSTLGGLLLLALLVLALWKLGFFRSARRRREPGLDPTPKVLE
Test: cell-based or functional assay

B1: anti-ITGA11 antibody #014 (antibody, mouse IgG2a, kappa, V domains shown)
VH: EVQLVESGGGLVQPGGSLRLSCAASGFNLTSSYIHWVRQAPGKGLEWVASISSHSSYTYYADSVKGRFTISADTSKNTAYLQMNSLRAEDTAVYYCARYWYYSAWALDYWGQGTLVTVSS
VL: DIQMTQSPSSLSASVGDRVTITCRASQSVSSAVAWYQQKPGKAPKLLIYSASSLYSGVPSRFSGSRSGTDFTLTISSLQPEDFATYYCQQSAPYSSLITFGQGTKVEIKR
Q: Which results are given for B1?
A: luminescence intensity ratio, ADCC Reporter Bioassay kit, non-senescent IMR-90 cell, relative to the cell without antibody regarded as 1: 1.4 ratio; luminescence intensity ratio, ADCC Reporter Bioassay kit, senescent IMR-90 cell, relative to the cell without antibody regarded as 1: 4.7 ratio
